Experimental data as given in patent US20230416363A1.

Target: mouse PD-1 expressed on cells (mouse) (UniProt Q02242)
Test: cell-based or functional assay

Sequence of mouse PD-1 expressed on cells (mouse) (Q02242 25-288): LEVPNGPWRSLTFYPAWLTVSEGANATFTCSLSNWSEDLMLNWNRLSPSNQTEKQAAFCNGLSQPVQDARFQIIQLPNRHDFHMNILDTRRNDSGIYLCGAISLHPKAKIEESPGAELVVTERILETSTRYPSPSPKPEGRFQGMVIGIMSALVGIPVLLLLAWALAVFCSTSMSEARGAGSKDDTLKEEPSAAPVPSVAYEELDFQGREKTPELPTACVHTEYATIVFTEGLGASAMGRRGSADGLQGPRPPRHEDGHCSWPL

B1: RMP1-14 (antibody, from another filing, V domains shown)
VH: EVQLQESGPGLVKPSQSLSLTCSVTGYSITSSYRWNWIRKFPGNRLEWMGYINSAGISNYNPSLKRRISITRDTSKNQFFLQVNSVTTEDAATYYCARSDNMGTTPFTYWGQGTLVTVSS
VL: DIVMTQGTLPNPVPSGESVSITCRSSKSLLYSDGKTYLNWYLQRPGQSPQLLIYWMSTRASGVSDRFSGSGSGTDFTLKISGVEAEDVGIYYCQQGLEFPTFGGGTKLELK
Work on B1 yielded an IC 50, Promega assay of 5.59 µg/mL.
